According to patent US20200247894A1 (Regeneron, published 2020):

T1: Mouse IL2Rγ extracellular domain expressed with a C-terminal myc-myc-hexahistidine tag (mouse)
T1 construct: whole entry is the tagged construct; also called mIL-2Rg-MMH
T1 chain: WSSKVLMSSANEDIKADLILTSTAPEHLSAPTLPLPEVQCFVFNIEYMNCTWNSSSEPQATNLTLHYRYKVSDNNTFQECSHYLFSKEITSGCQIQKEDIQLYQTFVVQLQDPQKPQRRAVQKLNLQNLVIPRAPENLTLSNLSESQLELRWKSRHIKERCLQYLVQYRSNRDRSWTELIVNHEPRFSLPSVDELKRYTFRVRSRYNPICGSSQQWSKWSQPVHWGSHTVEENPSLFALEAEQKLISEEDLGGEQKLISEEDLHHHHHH

T2: Rat IL2Rγ extracellular domain expressed with a C-terminal myc-myc-hexahistidine tag (rat)
T2 construct: whole entry is the tagged construct; also called rIL-2Rg-MMH; rat IL-2Rg-MMH
T2 chain: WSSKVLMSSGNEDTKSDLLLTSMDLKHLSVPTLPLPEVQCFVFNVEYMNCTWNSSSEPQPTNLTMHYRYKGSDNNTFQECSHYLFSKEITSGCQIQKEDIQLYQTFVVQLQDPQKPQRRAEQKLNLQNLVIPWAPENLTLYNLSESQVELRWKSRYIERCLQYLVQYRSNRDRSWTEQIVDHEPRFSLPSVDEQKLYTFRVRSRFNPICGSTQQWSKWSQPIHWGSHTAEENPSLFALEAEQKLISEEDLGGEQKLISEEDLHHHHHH

T3: mouse IL-2Rγ endogenously expressed on MC/9 cells (mouse, UniProt P34902 23-369)
T3 construct: whole, on cells
T3 sequence (looked up): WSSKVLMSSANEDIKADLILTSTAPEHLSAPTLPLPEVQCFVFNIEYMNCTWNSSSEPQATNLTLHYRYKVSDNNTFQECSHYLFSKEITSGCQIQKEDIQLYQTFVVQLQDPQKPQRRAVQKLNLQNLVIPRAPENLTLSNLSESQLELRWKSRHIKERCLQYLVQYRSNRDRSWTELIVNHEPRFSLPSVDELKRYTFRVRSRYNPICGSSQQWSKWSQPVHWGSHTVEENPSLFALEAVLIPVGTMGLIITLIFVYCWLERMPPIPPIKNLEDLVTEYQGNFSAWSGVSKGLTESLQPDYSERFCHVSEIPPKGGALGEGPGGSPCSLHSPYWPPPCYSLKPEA

T4: human IL-2Rγ endogenously expressed on NK-92 and Jurkat cells (human, UniProt P31785 23-369)
T4 construct: whole, on cells; on cells it stands with the other receptor subunits of the cell line; also called IL-2Rg; CD132
T4 sequence (looked up): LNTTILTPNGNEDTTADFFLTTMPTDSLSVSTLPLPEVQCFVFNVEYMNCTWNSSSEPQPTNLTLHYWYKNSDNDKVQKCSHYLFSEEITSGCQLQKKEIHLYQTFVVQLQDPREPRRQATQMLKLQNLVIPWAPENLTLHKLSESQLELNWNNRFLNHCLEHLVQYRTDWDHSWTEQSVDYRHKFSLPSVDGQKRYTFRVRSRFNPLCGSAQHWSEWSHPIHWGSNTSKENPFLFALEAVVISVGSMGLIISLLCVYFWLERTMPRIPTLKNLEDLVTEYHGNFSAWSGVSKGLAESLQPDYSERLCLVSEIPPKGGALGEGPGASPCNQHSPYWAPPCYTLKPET


Tests used:
[1] = target: T1, Mouse IL2Rγ extracellular domain …; experiment: SPR Biacore 4000, anti-hFc-captured mAb, 25 C
Procedure: (§1) Equilibrium dissociation constants (KD values) for IL-2Rγ binding to purified anti-IL2Rγ monoclonal antibodies were determined using a Biacore 4000 instrument equipped with a real-time surface plasmon resonance biosensor. All binding studies were performed in 10 mM HEPES, 150 mM NaCl, 3 mM EDTA, and 0.05% v/v Surfactant Tween-20, pH 7.4 (HBS-ET) running buffer at 25° C. and 37° C. The Biacore sensor surface was first derivatized by amine coupling with a monoclonal mouse anti-human Fc antibody (GE, # BR-1008-39) to capture anti-IL2Rγ monoclonal antibodies.
(§2) The dissociation of monoclonal antibody bound IL2Rγ reagents were monitored for 8-10 minutes in HBS-ET running buffer. Kinetic association (kₐ) and dissociation (kd) rate constants were determined by fitting the real-time sensorgrams to a 1:1 binding model using Scrubber 2.0c curve fitting software. Binding dissociation equilibrium constants (KD) and dissociative half-lives (t_{1/2}) were calculated from the kinetic rate constants as: […]

[2] = target: T2, Rat IL2Rγ extracellular domain …; experiment: SPR Biacore 4000, anti-hFc-captured mAb, 25 C
Procedure: as §1, §2

[3] = target: T1, Mouse IL2Rγ extracellular domain …; experiment: SPR Biacore 4000, anti-hFc-captured mAb, 37 C
Procedure: as §1, §2

[4] = target: T2, Rat IL2Rγ extracellular domain …; experiment: SPR Biacore 4000, anti-hFc-captured mAb, 37 C
Procedure: as §1, §2

[5] = target: T3, mouse IL-2Rγ endogenously expressed on …; experiment: flow cytometry, 10 ug/ml antibody, MC/9 cells (endogenous mouse IL-2Rg)
Procedure: (§3) For flow cytometry analyses, the cells were pre-incubated with mouse IgG at 100 μg/ml for 15 minutes at room temperature (RT) to block the binding of the antibodies to Fc receptors. […] Cells were washed, fixed using BD CytoFix™ (BD biosciences, #554655) and analyzed on an IQue® (Intellicyt®) Flow Cytometer or Accuri Flow cytometer (BD). […] The results were analyzed using ForeCyt® (IntelliCyt®) software to determine the geometric means of fluorescence (MFI) for viable cells. Binding ratios were calculated by normalizing the MFI of the test sample by the MFI of the unstained sample.

[6] = target: T4, human IL-2Rγ endogenously expressed on …; experiment: flow cytometry, 10 ug/ml antibody, NK-92 cells (endogenous human IL-2Rg)
Procedure: as §3

Binder | 100 nM Ag Bound [1] [RU] | binding result [1] | 100 nM Ag Bound [2] [RU] | binding result [2] | 100 nM Ag Bound [3] [RU] | 100 nM Ag Bound [4] [RU] | Binding Ratio (Sample over unstained MFIs) [5] | Raw MFI [5] [MFI] | Binding Ratio (Sample over unstained MFIs) [6] | Raw MFI [6] [MFI]
H4H12857P (antibody, human IgG4 S228P, kappa, V domains shown, fully human anti-IL2Rgamma mAb, human IgG4 Fc; also called REGN9432) VH: EVQLVESGGGVVRPGGSLRLSCAASGFTFDDFDMSWVRQGPGKGLEWVSGINWHGSSTGYADSVKGRFTISRDNAKNSLYLQMSSLRAEDTALYHCVRGGTIVGATTPLDYWGQGTLVTVSS VL: DIQMTQSPSSLSASVGDRVTMTCRASRTISSYLSWYQQKSGKVPNLLIFGASSLQSGVPSRFSASGSGTDFTLIISSLQPEDFATYYCQQSYSSPLTFGGGTKVEIKR | 5 | no binding (tested: 100 nM) | 1 | no binding (tested: 100 nM) | 1 | 1 |  |  |  | 
H4H12857P (antibody, human IgG4 S228P, kappa, V domains shown, fully human anti-IL2Rg antibody, human IgG4; also called REGN9432) VH: EVQLVESGGGVVRPGGSLRLSCAASGFTFDDFDMSWVRQGPGKGLEWVSGINWHGSSTGYADSVKGRFTISRDNAKNSLYLQMSSLRAEDTALYHCVRGGTIVGATTPLDYWGQGTLVTVSS VL: DIQMTQSPSSLSASVGDRVTMTCRASRTISSYLSWYQQKSGKVPNLLIFGASSLQSGVPSRFSASGSGTDFTLIISSLQPEDFATYYCQQSYSSPLTFGGGTKVEIKR |  |  |  |  |  |  | 1 | 198 |  | 

Other lines, results leading:

100 nM Ag Bound [1] [RU] | binding result [1] | 100 nM Ag Bound [2] [RU] | binding result [2] | 100 nM Ag Bound [3] [RU] | 100 nM Ag Bound [4] [RU] | Binding Ratio (Sample over unstained MFIs) [5] | Raw MFI [5] [MFI] | Binding Ratio (Sample over unstained MFIs) [6] | Raw MFI [6] [MFI] | Binder
 |  |  |  |  |  |  |  | 1 | 235 | H4H13538P (antibody, human IgG4 S228P, kappa, V domains shown, fully human anti-IL2Rg antibody, human IgG4) VH: EVQLVESGGGLVQPGGSLGLSCAASGFTFSNYAMSWVRQAPGKGLEWVSAVSGGGGGTYYADSVKGRFTISRDNSKNTVLLQMNSLRAEDTAVYYCARGRTGGLDYWGPGTLVTVSS VL: DVVMTQSPLSLPVIFGQPASISCRSSQSLVDSDGNTYLNWLQQRPGQSPRRLIYEVSNRDSGVPDRFSGSGSGTDFTLTISRVEAEDVGIYYCMQGTRWPPTFGGGTKVEIKR
1 | no binding (tested: 100 nM) | 2 | no binding (tested: 100 nM) | 1 | 1 |  |  |  |  | H4H12927P2 (antibody, human IgG4 S228P, kappa, V domains shown, fully human anti-IL2Rgamma mAb, human IgG4 Fc) VH: EVQLVESGGGVVRPGGSLRLSCATSGFTFDDYGMSWVRQVPGKGLEWVSSVNRNGGTTDYADSVKGRFTISRDNAKRSLFLQMNSLRAEDTALYHCATGELFFDYWGQGTLVTVSS VL: not shown
 |  |  |  |  |  |  |  | 37 | 7050 | H4H13541P (antibody, human IgG4 S228P, kappa, V domains shown, fully human anti-IL2Rg antibody, human IgG4) VH: EVQLVESGGGVVRPGGSLRLSCAASGFIFDDYDMSWVRQPPGRGLEWVSGIDWFGGTRGYADSMKGRFTISRDNAKNSLYLQMNSLRVEDTAFYYCARGGAIVGAVTPFDYWGQGTLVTVSS VL: DIQMTQSPSSLSASVGNRVTLSCRASQSINTYLSWYQQRPGKAPKLLIYAASSLQSGVPSRFSGSGAGTDFTLTISSLQPEDFATYYCQQSYSAPLTFGGGTKVEIKR
